From paper PMC9352680, “A comprehensive thermodynamic model for RNA binding by the Saccharomyces cerevisiae Pumilio protein PUF4”
Positions count from the first letter of the chain named. Names and notes keep the numbering of the source.

T1: PUF4 RNA-binding domain (Saccharomyces cerevisiae, UniProt P25339 537-888)
T1 sequence: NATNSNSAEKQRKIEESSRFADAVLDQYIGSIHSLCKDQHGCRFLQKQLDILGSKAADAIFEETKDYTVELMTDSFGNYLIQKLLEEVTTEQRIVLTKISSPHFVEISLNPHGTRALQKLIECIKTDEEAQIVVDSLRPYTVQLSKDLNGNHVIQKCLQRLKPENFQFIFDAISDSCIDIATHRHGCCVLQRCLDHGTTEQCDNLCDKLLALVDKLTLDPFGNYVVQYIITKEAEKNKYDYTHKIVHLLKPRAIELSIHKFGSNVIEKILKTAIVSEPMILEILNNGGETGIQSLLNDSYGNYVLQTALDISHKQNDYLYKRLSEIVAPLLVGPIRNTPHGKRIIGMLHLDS

B1: Id_i_S4_P3E.5_K3.1_C3.3_[T-3C]_[C-2G]_[T-1C]_H3.1_A3.1_F3.1_T3.2 (ssRNA)
RNA: UUUGACAACUGAUCGUUCUUUCUCGCUGUAUAUAUAUUCUUUCUCGAUCAGUUGUCUUU
B2: Id_i_S4_P3E.5_K3.1_C3.3_[T-3C]_[C-2T]_[T-1G]_H3.1_A3.1_F3.1_T3.2 (ssRNA)
RNA: B1 RNA with G25U, C26G
B3: Id_i_S4_P3E.6_K3.2_C3.3_[T-3G]_[C-2G]_[T-1C]_H3.2_A3.1_F3.1_T3.2 (ssRNA)
RNA: B1 RNA with C24G, G28A
B4: Id_i_S4_P3E.6_K3.2_C3.3_[T-3A]_[C-2G]_[T-1C]_H3.2_A3.1_F3.1_T3.2 (ssRNA)
RNA: B1 RNA with C24A, G28A
B5: Id_i_S4_P3E.7_K3.3_C3.3_[T-3C]_[C-2T]_[T-1G]_H3.3_A3.1_F3.1_T3.2 (ssRNA)
RNA: B1 RNA with G25U, C26G, U27A, G28C, U29A, A30C
B6: Id_i_S4_P3E.7_K3.3_C3.3_[T-3A]_[C-2T]_[T-1C]_H3.3_A3.1_F3.1_T3.2 (ssRNA)
RNA: B1 RNA with C24A, G25U, U27A, G28C, U29A, A30C
B7: Id_i_S4_P3E.7_K3.3_C3.3_[T-3A]_[C-2T]_[T-1A]_H3.3_A3.1_F3.1_T3.2 (ssRNA)
RNA: B1 RNA with C24A, G25U, C26A, U27A, G28C, U29A, A30C
B8: Id_i_S4_P3E.7_K3.3_C3.3_[T-3C]_[C-2A]_[T-1G]_H3.3_A3.1_F3.1_T3.2 (ssRNA)
RNA: B1 RNA with G25A, C26G, U27A, G28C, U29A, A30C
B9: Id_i_S4_P3E.7_K3.3_C3.3_[T-3C]_[C-2T]_[T-1A]_H3.3_A3.1_F3.1_T3.2 (ssRNA)
RNA: B1 RNA with G25U, C26A, U27A, G28C, U29A, A30C
B10: Id_i_S4_P3E.6_K3.2_C3.3_[T-3C]_[C-2T]_[T-1G]_H3.2_A3.1_F3.1_T3.2 (ssRNA)
RNA: B1 RNA with G25U, C26G, G28A
B11: Id_i_S4_P3E.5_K3.1_C3.3_[T-3A]_[C-2T]_[T-1C]_H3.1_A3.1_F3.1_T3.2 (ssRNA)
RNA: B1 RNA with C24A, G25U
B12: Id_i_S4_P3E.6_K3.2_C3.3_[T-3C]_[C-2T]_[T-1A]_H3.2_A3.1_F3.1_T3.2 (ssRNA)
RNA: B1 RNA with G25U, C26A, G28A
B13: Id_i_S4_P3E.7_K3.3_C3.3_[T-3A]_[C-2A]_[T-1A]_H3.3_A3.1_F3.1_T3.2 (ssRNA)
RNA: B1 RNA with C24A, G25A, C26A, U27A, G28C, U29A, A30C
B14: Id_i_S4_P3E.7_K3.3_C3.3_[T-3C]_[C-2A]_[T-1A]_H3.3_A3.1_F3.1_T3.2 (ssRNA)
RNA: B1 RNA with G25A, C26A, U27A, G28C, U29A, A30C
B15: Id_i_S4_P3E.6_K3.2_C3.3_[T-3C]_[C-2A]_[T-1C]_H3.2_A3.1_F3.1_T3.2 (ssRNA)
RNA: B1 RNA with G25A, G28A

Target: T1, PUF4 RNA-binding domain
Assay: Mg; RNA-MaP; 20 mM Na-HEPES pH 7.4, 30 mM KOAc, 0.75 mM MgCl2, 0.1% Tween-20, 5% glycerol, 0.1 mg/mL BSA, 2 mM DTT; 25 C; 0.0125-409.6 nM protein
Conditions: tags: N-His6-TEV cleaved; C-SNAP kept, Cy3B-labelled; label: tethered on chip by stalled RNA polymerase

Row | Binder | Kd
1 | UCUCUUGCUGUAUAUAUGUCUCUU (ssRNA) [Id_ii_S1_P3E.2_K3.1_C3.2_[C-2G]_[T-1C]_H3.1_A3.1_F3.1_T3.2_[A10G]] | 12.4 nM
2 | ACAAACCUCUAUAUAUAUAACAAAC (ssRNA) [Id_i_S3_P3E.6_K3.2_C3.3_[T-3C]_[C-2T]_[T-1C]_H3.2_A3.1_F3.1_T3.2] | 219 nM
3 | UCUCUUGUUGUAUAUAUUUCUCUU (ssRNA) [Id_ii_S1_P3E.2_K3.1_C3.2_[C-2G]_H3.1_A3.1_F3.1_T3.2_[A10T]] | 8 nM
4 | UCUCUUGUUGUAUAUAUGUCUCUU (ssRNA) [Id_ii_S1_P3E.2_K3.1_C3.2_[C-2G]_H3.1_A3.1_F3.1_T3.2_[A10G]] | 8.99 nM
5 | UCUCUUGCUGUAUAUAAAUCUCUU (ssRNA) [Id_ii_S1_P3E.2_K3.1_C3.2_[C-2G]_[T-1C]_H3.1_A3.1_F3.1_T3.2_[T9A]] | 15.5 nM
6 | UCUCUUCGUUUAUUAUCUCUU (ssRNA) [Ib_S1_P4E.1_K4.1_C4.1_H4.1_[T1C]_[A4T]_A4.1_F4.1_T4.1] | > 2300 nM
7 | UCUCUUGCUGUAUAUAACUCUCUU (ssRNA) [Id_ii_S1_P3E.2_K3.1_C3.2_[C-2G]_[T-1C]_H3.1_A3.1_F3.1_T3.2_[T9A]_[A10C]] | 18.8 nM
8 | UCUCUUAGUGUAUUAUCUCUU (ssRNA) [Ib_S1_P4E.1_K4.1_C4.1_H4.1_[T1A]_[A4G]_A4.1_F4.1_T4.1] | 64 nM
9 | UCUCUUGUUGUAUAUAAUUCUCUU (ssRNA) [Id_ii_S1_P3E.2_K3.1_C3.2_[C-2G]_H3.1_A3.1_F3.1_T3.2_[T9A]_[A10T]] | 9.55 nM
10 | ACAAACGGAACACUAUAUAACAAAC (ssRNA) [Id_i_S3_P3E.7_K3.3_C3.3_[T-3G]_[C-2G]_[T-1A]_H3.3_A3.1_F3.1_T3.2] | 1440 nM
11 | UCUCUUAGCAUAUUAUCUCUU (ssRNA) [Ib_S1_P4E.1_K4.1_C4.1_H4.1_[T1A]_[T3C]_A4.1_F4.1_T4.1] | 1930 nM
12 | UCUCUUGCUGUAUAUACUUCUCUU (ssRNA) [Id_ii_S1_P3E.2_K3.1_C3.2_[C-2G]_[T-1C]_H3.1_A3.1_F3.1_T3.2_[T9C]_[A10T]] | 31.8 nM
13 | ACAAACAUCACACUAUAUAACAAAC (ssRNA) [Id_i_S3_P3E.7_K3.3_C3.3_[T-3A]_[C-2T]_[T-1C]_H3.3_A3.1_F3.1_T3.2] | 2250 nM
14 | ACAAACAGGUAUAUAUAUAACAAAC (ssRNA) [Id_i_S3_P3E.6_K3.2_C3.3_[T-3A]_[C-2G]_[T-1G]_H3.2_A3.1_F3.1_T3.2] | 566 nM
15 | UCUCUUCGUGUAUUAUCUCUU (ssRNA) [Ib_S1_P4E.1_K4.1_C4.1_H4.1_[T1C]_[A4G]_A4.1_F4.1_T4.1] | 33.2 nM
16 | B1 | 1.51 nM
17 | B2 | 1.5 nM
18 | B3 | 1420 nM
19 | B4 | 537 nM
20 | B5 | 424 nM
21 | B6 | 346 nM
22 | B7 | 571 nM
23 | B8 | 572 nM
24 | B9 | 113 nM
25 | B10 | 1.92 nM
26 | B11 | 1.98 nM
27 | B12 | 500 nM
28 | B13 | 451 nM
29 | B14 | 110 nM
30 | B15 | 56.5 nM
